One experiment concerns the target 8F3 human IgE mAb. The experiment in a line: ELISA. As to conditions: chain shown with the change; mAb 10 µg/mL (highest point of the titration); parent: est. 3.6; read off a plot.
The target in a further experiment is 1H9 human IgE mAb. In words: ELISA. As to conditions: chain shown with the change; mAb 10 µg/mL (highest point of the titration); parent: est. 3.3; read off a plot. A general note: An ELISA detects its analyte on a solid surface through an enzyme-linked reagent.
Sequence of 1H9 human IgE mAb (chain, as listed by the source, chain 1 of 2): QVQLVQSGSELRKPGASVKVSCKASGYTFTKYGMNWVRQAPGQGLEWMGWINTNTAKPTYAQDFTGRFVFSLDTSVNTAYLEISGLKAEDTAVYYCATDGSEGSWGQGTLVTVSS
Sequence of 1H9 human IgE mAb (chain, as listed by the source, chain 2 of 2): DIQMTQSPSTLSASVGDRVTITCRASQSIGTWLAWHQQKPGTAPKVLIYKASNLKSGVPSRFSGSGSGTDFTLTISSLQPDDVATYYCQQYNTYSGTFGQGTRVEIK
The next experiment has as its target 16A8 human IgE mAb. In words: ELISA. As to conditions: chain shown with the change; mAb 10 µg/mL (highest point of the titration); parent: est. 3.4; read off a plot.
Another experiment concerns the target 13D9 human IgE mAb. The experiment in a line: ELISA. As to conditions: chain shown with the change; mAb 10 µg/mL (highest point of the titration); parent: est. 3.5; read off a plot.
Experiment [1] addresses 38B7 human IgE mAb (human). The experiment in a line: SPR; Carterra LSA; antibody as ligand, allergen or peptide as analyte; how the antibody was held for these pairs is not told. For orientation: Surface plasmon resonance follows binding to a sensor surface in real time, without labels.

Positions count from the first letter of the chain named. Names and notes keep the numbering of the source. Square brackets hold non-standard residues; d marks the D form. Ends that are not written are not given here. Hyp = O=C(O)[C@@H]1C[C@@H](O)CN1

The Kd is the equilibrium constant for the complex coming apart. Higher therefore signals weaker binding. By koff is commonly meant the rate constant with which the complex falls apart. In general, kon refers to the rate constant with which the complex forms. A higher kon goes with fast association.

Sequence of 38B7 human IgE mAb (human) (heavy, as listed by the source, chain 1 of 2): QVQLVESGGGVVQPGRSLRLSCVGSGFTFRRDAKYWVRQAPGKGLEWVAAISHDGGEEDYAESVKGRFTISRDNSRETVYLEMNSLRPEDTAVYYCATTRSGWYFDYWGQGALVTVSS
Sequence of 38B7 human IgE mAb (human) (light, as listed by the source, chain 2 of 2): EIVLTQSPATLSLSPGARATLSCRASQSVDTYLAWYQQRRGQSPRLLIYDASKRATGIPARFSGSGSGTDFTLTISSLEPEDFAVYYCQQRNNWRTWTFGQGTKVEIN
Sequence of 13D9 human IgE mAb (chain, as listed by the source, chain 1 of 2): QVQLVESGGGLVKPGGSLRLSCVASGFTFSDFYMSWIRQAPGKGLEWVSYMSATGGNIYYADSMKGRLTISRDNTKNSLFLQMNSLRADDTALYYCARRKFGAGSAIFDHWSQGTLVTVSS
Sequence of 13D9 human IgE mAb (chain, as listed by the source, chain 2 of 2): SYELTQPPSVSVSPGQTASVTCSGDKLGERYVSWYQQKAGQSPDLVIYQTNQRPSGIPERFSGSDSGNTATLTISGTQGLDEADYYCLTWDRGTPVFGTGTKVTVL
Sequence of 16A8 human IgE mAb (chain, as listed by the source, chain 1 of 2): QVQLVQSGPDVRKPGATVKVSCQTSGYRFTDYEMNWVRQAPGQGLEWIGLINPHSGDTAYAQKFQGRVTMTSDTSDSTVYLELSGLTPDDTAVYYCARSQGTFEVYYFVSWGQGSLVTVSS
Sequence of 16A8 human IgE mAb (chain, as listed by the source, chain 2 of 2): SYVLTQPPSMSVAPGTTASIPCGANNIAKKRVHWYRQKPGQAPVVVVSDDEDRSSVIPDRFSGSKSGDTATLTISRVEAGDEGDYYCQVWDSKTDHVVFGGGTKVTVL
Sequence of 8F3 human IgE mAb (chain, as listed by the source, chain 1 of 2): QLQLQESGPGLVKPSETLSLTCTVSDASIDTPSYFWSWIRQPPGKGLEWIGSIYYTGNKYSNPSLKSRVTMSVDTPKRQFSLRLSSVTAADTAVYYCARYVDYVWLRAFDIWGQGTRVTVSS
Sequence of 8F3 human IgE mAb (chain, as listed by the source, chain 2 of 2): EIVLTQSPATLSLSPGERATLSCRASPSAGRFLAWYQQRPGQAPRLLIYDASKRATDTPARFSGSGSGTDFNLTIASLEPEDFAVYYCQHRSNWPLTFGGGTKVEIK

B1: Ara h 6c R90Q; Q91A (protein)
chain: SCERQVDRVNLKPCEQHIMQRIMGEQEQYDSYDIRSTRSSDQQQRCCDELNEMENTQGCMCEALQQIMENQCDRLQDQAMVQQFKRELMSLPQQCNFRAPQRCDLDVSGGRC
B1: the response with 8F3 human IgE mAb is 3.6 OD 450nm; in the experiment with 1H9 human IgE mAb it was 1.6 OD 450nm; with 16A8 human IgE mAb, 3.4 OD 450nm; with 13D9 human IgE mAb it was 3.5 OD 450nm.

B2: Ara h 6c Q113R; R114E (protein)
chain: B1 chain with Q78R, A79Q, Q101R, R102E
On to B2, for which the response with 1H9 human IgE mAb is 3.4 OD 450nm; with 16A8 human IgE mAb, 2.6 OD 450nm; with 13D9 human IgE mAb it was 3.5 OD 450nm.

B3: Ara h 6c D19R; E27A; N82A (protein)
chain: B1 chain with D7R, E15A, N70A, Q78R, A79Q
Regarding B3, the response in the experiment with 13D9 human IgE mAb worked out at 1.6 OD 450nm.
As to EDSYERDPYSPSQD [nonhydroxylated DPYSPS containing peptide (…)], in experiment [1], the Kd turned out to be 7.1 µM, the koff was found to be 0.0887 s⁻¹ and the kon amounted to 16900 M⁻¹ s⁻¹.
The like results for EDSYERDPYS[Hyp]SQD [hydroxylated DPYSPS containing peptide (…^OHSQD)] were, in that order, 0.02 µM, 0.00198 s⁻¹ and 101000 M⁻¹ s⁻¹.
